Drawing on article PMC7950211 (2021), this text covers koff for three molecules.

Holding throughout (assay): SPR
A general note: In SPR one partner is held on a chip, and binding of the other changes the refractive index at the surface.

In test [1] the target is T1, parasite-infected erythrocyte surface protein 15 (PIESP15), P. falciparum, recombinant ectodomain (P. falciparum, biotin (enzymatic monobiotinylation of the bait form)).
T1 chain: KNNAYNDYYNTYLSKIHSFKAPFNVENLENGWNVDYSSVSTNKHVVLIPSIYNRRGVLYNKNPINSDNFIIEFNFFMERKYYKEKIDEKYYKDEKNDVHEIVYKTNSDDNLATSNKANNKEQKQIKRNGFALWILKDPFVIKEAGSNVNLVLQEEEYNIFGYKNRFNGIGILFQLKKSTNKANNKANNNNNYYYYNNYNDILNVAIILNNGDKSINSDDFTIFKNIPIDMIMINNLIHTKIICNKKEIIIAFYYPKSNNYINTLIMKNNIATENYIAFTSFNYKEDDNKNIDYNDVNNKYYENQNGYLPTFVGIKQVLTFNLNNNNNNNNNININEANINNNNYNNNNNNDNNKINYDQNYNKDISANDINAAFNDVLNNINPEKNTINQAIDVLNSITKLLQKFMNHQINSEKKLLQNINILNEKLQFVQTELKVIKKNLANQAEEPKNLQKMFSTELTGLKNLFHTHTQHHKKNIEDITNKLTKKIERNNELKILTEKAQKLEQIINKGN

Test [2] concerns the target T2, PF3D7_0526900, P. falciparum p24 family protein, recombinant ectodomain (P. falciparum, biotin (enzymatic monobiotinylation of the bait form)).
T2 chain: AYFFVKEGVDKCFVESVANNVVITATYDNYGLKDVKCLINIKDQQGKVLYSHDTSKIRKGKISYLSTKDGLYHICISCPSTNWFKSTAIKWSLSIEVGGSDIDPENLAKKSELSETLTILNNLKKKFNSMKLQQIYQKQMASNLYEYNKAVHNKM

Test [3] addresses T3, PF3D7_0721100, P. falciparum predicted secreted protein, recombinant (P. falciparum, biotin (enzymatic monobiotinylation)).
T3 chain: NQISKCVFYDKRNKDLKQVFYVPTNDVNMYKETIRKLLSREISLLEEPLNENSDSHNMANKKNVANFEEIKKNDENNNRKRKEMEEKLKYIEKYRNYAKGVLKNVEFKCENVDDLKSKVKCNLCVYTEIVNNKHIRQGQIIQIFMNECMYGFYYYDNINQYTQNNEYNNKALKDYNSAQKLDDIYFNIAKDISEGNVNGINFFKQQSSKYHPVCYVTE

Usually koff stands for the rate constant with which the complex falls apart.

B1: PF3D7_0702900, P. falciparum secreted protein with tandem EF-hand domains, recombinant (natural protein)
chain: QDNKNKVEETHEEQGEMTQEEKDEIYSEFVDYDLNKDGLIDAEEIVVTLKNMKKADFINFFNKVDLDSSGTISIDEYMLFINSN
modifications: biotin (enzymatic monobiotinylation of the bait form)
B1: in test [1], the koff was determined as 0.035 s⁻¹.

B2: PF3D7_0422100, P. falciparum p24 family protein, recombinant ectodomain (domain or fragment)
chain: NFVLSNANTNNVNKNGANKKNNANNNNMNKAGDKKKATKGKKGNANDNVNEFNFNFNDLLNEINNAATNDNNNNNNDNNNDNNNNNNNNNNNYNGKNEINENNFNEEYNKLEKNFQMNAEDDDNNRGDINMDQFNEKKNNLNEDNNKMKPNANDYQYNENDADTDSEEDLTNIWNKNMQNFEPSTLLTFEIPSNSEEYLFEEVPEVNTYFRGVFYSNNEADDNIIEFLISDPDGQVIYKKEASEGIFYFYTKKVGIYTLTLKNNKWMGKKLTTVALGLGENPSLRSDHVKDFTNYIQRIVAETKKLKNEIKYLSSKHMRHIEKMKKITNK
modifications: biotin (enzymatic monobiotinylation of the bait form)
For B2, the koff in test [2] was determined as 0.23 s⁻¹.

B3: CelTOS, P. falciparum, recombinant (natural protein)
chain: FRGNNGHNSASSLYNGAQFIEQLNNAFTSAFLESQSMNKIGDDLAETISNELVSVLQKNSPTFLESSFDIKSEVKKHAKSMLKELIKVGLPSFENLVAENVKPPKVDPATYGIIVPVLTSLFNKVETAVGAKVSDEIWNYNSPDVSESEESLSDDFFD
modifications: biotin (enzymatic monobiotinylation of the bait form)
As to B3, the koff in test [3] is 0.025 s⁻¹.
